Assay results: PMC4833811

What was measured:
14-3-3ε:ζ heterodimer = 14-3-3ε:ζ heterodimer (UniProt P62258)
GST-14-3-3γ:γ homodimer = biological target: T1, GST-14-3-3γ:γ homodimer (UniProt P61981)
T1 sequence: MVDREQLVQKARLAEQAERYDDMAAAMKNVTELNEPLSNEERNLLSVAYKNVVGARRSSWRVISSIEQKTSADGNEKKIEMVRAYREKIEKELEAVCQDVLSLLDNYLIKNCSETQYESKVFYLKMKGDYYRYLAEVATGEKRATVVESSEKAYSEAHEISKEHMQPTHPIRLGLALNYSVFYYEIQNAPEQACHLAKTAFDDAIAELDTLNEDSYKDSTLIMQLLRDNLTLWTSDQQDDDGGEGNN

UniProt P62258, sequence (P62258 whole entry, chain 1 of 2): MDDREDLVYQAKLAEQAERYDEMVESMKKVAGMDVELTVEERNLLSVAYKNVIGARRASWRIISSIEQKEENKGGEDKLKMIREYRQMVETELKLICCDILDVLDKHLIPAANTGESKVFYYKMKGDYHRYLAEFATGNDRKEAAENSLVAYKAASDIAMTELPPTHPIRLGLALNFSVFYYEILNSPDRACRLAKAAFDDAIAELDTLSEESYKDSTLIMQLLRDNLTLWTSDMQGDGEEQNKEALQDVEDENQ
UniProt P62258, sequence (P62258 other isoform, or with tags, fused parts or gaps, chain 2 of 2): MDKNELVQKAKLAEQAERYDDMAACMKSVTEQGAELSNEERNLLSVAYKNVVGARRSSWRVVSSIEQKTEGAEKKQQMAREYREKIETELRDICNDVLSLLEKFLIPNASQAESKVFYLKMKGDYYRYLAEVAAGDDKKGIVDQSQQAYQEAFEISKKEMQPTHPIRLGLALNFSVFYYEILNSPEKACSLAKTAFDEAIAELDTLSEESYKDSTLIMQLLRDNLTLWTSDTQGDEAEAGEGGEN

relative activation of bTH-pS19 activity (maximal, 12.5–100 µg/ml thrombin-cleaved 14-3-3, BH4 as cofactor); lowest activation (14-3-3ε:ζ heterodimer): 3.3 fold
relative activation of bTH-pS19 activity (maximal, 12.5–100 µg/ml thrombin-cleaved 14-3-3, BH4 as cofactor); highest activation (GST-14-3-3γ:γ homodimer): 4.4 fold
Substance: bovine tyrosine hydroxylase phosphorylated by PRAK on Ser19 (from UniProt P17289 1-491) (enzyme)
